Experimental data as given in publication PMC5300155, “Biochemical and biophysical investigations of the interaction between human glucokinase and pro-apoptotic BAD” (PLoS ONE, 2017).
“Also recorded” adds a separate entry of the source.

T1: GCK (Homo sapiens, UniProt P35557)
T1 construct: hexahistidine (N); made in house; host or cells: glucokinase auxotroph BM5340(DE3)
T1 sequence (P35557 1-465): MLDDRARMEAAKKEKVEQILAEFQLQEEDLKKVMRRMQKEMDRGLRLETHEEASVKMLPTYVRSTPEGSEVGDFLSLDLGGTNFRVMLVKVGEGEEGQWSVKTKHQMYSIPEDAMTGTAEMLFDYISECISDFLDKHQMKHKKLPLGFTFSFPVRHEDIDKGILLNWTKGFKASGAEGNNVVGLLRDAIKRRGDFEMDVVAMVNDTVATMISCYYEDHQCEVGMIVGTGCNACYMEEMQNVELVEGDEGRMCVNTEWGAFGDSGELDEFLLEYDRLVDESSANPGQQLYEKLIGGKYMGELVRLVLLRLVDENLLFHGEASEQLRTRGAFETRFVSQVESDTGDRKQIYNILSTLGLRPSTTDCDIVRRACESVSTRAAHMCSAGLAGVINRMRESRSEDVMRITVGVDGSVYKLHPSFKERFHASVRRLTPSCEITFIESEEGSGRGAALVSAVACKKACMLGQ

T2: human pancreatic GCK (Homo sapiens, UniProt P35557)
T2 construct: hexahistidine (N); made in house; host or cells: glucokinase auxotroph BM5340(DE3)
T2 sequence (P35557 1-465): T1 sequence (P35557 1-465)

B1: BAD: BAD following cleavage and removal of the GST tag (protein)
chain: MFQIPEFEPSEQEDSSSAERGLGPSPAGDGPSGSGKHHRQAPGLLWDASHQQEQPTSSSHHGGAGAVEIRSRHSSYPAGTEDDEGMGEEPSPFRGRSRSAPPNLWAAQRYGRELRRMSDEFVDSFKKGLPRPKSAGTATQMRQSSSWTRVFQSWWDRNLGRGSSAPSQ
modifications: left off: His6, N-terminal, state not stated | GST, C-terminal, kept
B2: phosphorylated BAD-GST: BAD-GST phosphorylated in vitro with PKAc at S75, S99, S118 (protein)
chain: B1 chain
modifications: phosphoserine at 75, 99 and 118 (all three sites found by mass spectrometry; four populations by isoelectric focusing); left off: His6, N-terminal, state not stated | GST, C-terminal, kept
notes: BAD-GST phosphorylated in vitro with PKAc at S75, S99, S118

Key:
GCK [1] = molecular target: T1, GCK; assay: Fluorescence polarization, binding of fluorescent BH3 peptides to GCK; conditions: phosphorylation at position of Ser-118; trifluoroethanol 20–40%; S1 Fig: 34 μM f-pBH3, 40% trifluoroethanol
Procedure: (§1) Recombinant human pancreatic GCK containing an N-terminal hexahistidine tag was produced in the glucokinase auxotroph BM5340(DE3) and purified using a previously described procedure. TEV protease was expressed as a GST-fusion protein from a pGEX plasmid encoding the S219V variant, provided by David Waugh (Addgene plasmid 8827). Expression was induced with IPTG (1 mM) for 4 h at 30°C. Cell pellets were resuspended in Tris buffer (50 mM, pH 8.0) containing NaCl (100 mM), glycerol (10% v/v), benzamidine (1 mM) and dithiothreitol (10 mM) and lysed via French Press. Polyethyleneimine (0.1%) was added to the lysate and protein was purified on a glutathione-affinity column (GSTrap, GE Sciences). TEV protease was flash frozen and stored at -80°C for up to 1 month.
A fluorescence polarization assay developed by Zhang, et al. was utilized to measure interactions between BAD and its binding partners. Two 21-residue FITC-labeled peptides containing the BH3 domain of BAD were synthesized and purified to >95% by Peptide2.0 (f-BH3 = NLWAAQRYGRELRRMSDK(FITC)FVD; f-pBH3 = NLWAAQRYGRELRRM(p)SDK(FITC) FVD). Polarization was measured at room temperature with an excitation wavelength of 485 nm and an emission wavelength of 530 nm using a SpectraMax M5 microplate reader (Molecular Devices). […]

Bcl-xL = molecular target: T3, Bcl-xL (Homo sapiens, UniProt Q07817, DEL45-84); assay: Fluorescence polarization competition with f-BH3 for binding to Bcl-xL; conditions: for IC50: competitor 0–50 μM, room temperature, 15 min
T3 construct: made in house
Procedure: Exon 1 of human bcl-xl lacking the C-terminal residues 189–233 was obtained from Stanley Korsmeyer (Addgene plasmid 8755) and site-directed mutagenesis was performed to create the Δ45–84, Δ210–233 variant. Bcl-xL was expressed and purified using a modified procedure described previously. Briefly, Bcl-xL was purified by nickel affinity chromatography and dialyzed against potassium phosphate buffer (20 mM, pH 7.4) containing NaCl (50 mM), EDTA (1 mM), and DTT (10 mM). Protein was applied to a Superdex 200 10/30 HR size-exclusion column, at a flow rate of 0.02 mL/min, to remove aggregate and oligomers prior to binding assays.
A fluorescence polarization assay developed by Zhang, et al. was utilized to measure interactions between BAD and its binding partners. Two 21-residue FITC-labeled peptides containing the BH3 domain of BAD were synthesized and purified to >95% by Peptide2.0 (f-BH3 = NLWAAQRYGRELRRMSDK(FITC)FVD; f-pBH3 = NLWAAQRYGRELRRM(p)SDK(FITC) FVD). Polarization was measured at room temperature with an excitation wavelength of 485 nm and an emission wavelength of 530 nm using a SpectraMax M5 microplate reader (Molecular Devices). Experiments to measure binding constants of the fluorescent peptides to Bcl-xL or GCK were performed in black 96-well plates. Each well contained 15 nM peptide, 60 μL BAD buffer (0.1 M Tris, 0.1 M KCl, 0.5 M arginine, 2.5 mM CHAPS, 5 mM TCEP, 10% glycerol, pH 8.5) and variable concentrations of Bcl-xL (0–2.25 μM) or GCK (0–400 μM) in assay buffer (20 mM phosphate buffer, pH 7.4, 1 mM EDTA, 50 mM NaCl, 10 mM DTT) in a final volume of 120 μL. High GCK concentrations were chosen in an effort to detect a signal indicating a binding event. Assays containing GCK also contained 250 mM glucose. […] Plates were incubated at room temperature in the dark for 15 min prior to polarization measurements.

[2] = Circular dichroism spectroscopy (secondary structure); format: physicochemical; conditions: relative to (unmodified) BAD-GST, 25°C, pH 7.8
Procedure: Proteins were dialyzed overnight into potassium phosphate buffer (50 mM, pH 7.8) containing KCl (50 mM), glycerol (5% v/v), and TCEP (4 mM). CD spectra were recorded on an AVIV 202 CD spectrometer at 25°C with protein concentrations ranging from 3–15 μM. Spectra were recorded from 200–260 nm in 10 mm pathlength cuvettes using a 1 nm step resolution and 3 s integration time. Three scans were recorded per sample, averaged, and baseline subtracted with appropriate buffer controls. CD signals were converted to molar ellipticity and deconvoluted using CDPro Software.

human pancreatic GCK [3] = molecular target: T2, human pancreatic GCK; assay: GCK activity, G6PDH-linked assay (lab's routine assay, 25°C); format: biochemical
Procedure: as §1
GCK activity was assayed using a glucose 6-phosphate dehydrogenase (G6PDH)-linked assay at 25°C. 50 nM GCK was assayed in buffer containing HEPES (100 mM, pH 7.4), KCl (50 mM), NADP^+ (0.5 mM), DTT (10 mM), MgCl2 (7 mM), G6PDH (1.5 U) and glucose (0–100 mM) in a total volume of […]. Addition of ATP (6 mM) initiated the reaction. Production of NADPH was measured at 340 nm. To determine the effect of BAD on GCK activity, 5 μL of BAD or buffer control was added to the reaction in a final volume of 100 μL. K0.5 values were determined by fitting to the Hill equation. The effect of BAD on GCK activity is reported as the percent rate increase at individual glucose concentrations, calculated as the average of a minimum of four rates of BAD-containing assays divided by the average of rates of BAD buffer-containing assays. The results represent the average of at least three independent preparations of pure BAD.

BAD-deficient islets = conditions: ref [8]; cited from earlier work
Excerpt: The mitochondrial complex fails to form in the absence of BAD, resulting in reduced glucose-driven oxygen consumption and impaired GSIS in β-cells. […] In hepatocytes, BAD deficiency results in insulin resis ...

GCK [4] = conditions: rabbit reticulocyte lysates; ref [8]; cited from earlier work
Excerpt: Several lines of evidence support a direct interaction between GCK and BAD. […] Kinetic assays re ... || The first indication of a putative interaction between full-length BAD and GCK came from the observation that both proteins co-localize with one another in a macromolecular complex purified from mouse hepatocyte mitochondrial extracts. […] In contrast to these experiments, our study utilizes active, highly purified homogeneous preparations of both proteins. The biochemical and biophysical e ...

human pancreatic GCK [5] = molecular target: T2, human pancreatic GCK; assay: Analytical ultracentrifugation sedimentation velocity of equimolar mixtures with GCK; format: binding; conditions: equimolar mixture, BAD buffer pH 8.5, 20°C, 50,000 x g
Procedure: (§2) Sedimentation velocity experiments were conducted with an Optima XLI Ultracentrifuge (Beckman Coulter) using a four-hole rotor with three 420 μL samples in standard double-sector Epon centerpieces equipped with sapphire windows. Absorbance and interference data were collected simultaneously. Size-exclusion purified proteins were concentrated to OD280 nm = 0.3–1.0 prior to centrifugation. For complex formation, proteins were mixed in a 1:1 molar ratio in BAD buffer (0.1 M Tris, 0.1 M KCl, 0.5 M arginine, 2.5 mM CHAPS, 5 mM TCEP, 10% glycerol, pH 8.5) and incubated on ice 30 min prior to the start of the experiment. Experiments were carried out at 20°C and 50,000 x g. Data were analyzed with Ultrascan III software using a minimum of 70 scans per sample for analysis. Van Holde-Weischet analysis was performed to obtain S20,W values.

[6] = Isoelectric focusing of phosphorylated BAD-GST; format: physicochemical; conditions: IEF, IPG strips pH 4–7; four distinct populations
Procedure: Recombinant BAD-GST was phosphorylated with PKAc after refolding. 1 unit PKAc was added to 10 units BAD-GST and the reaction was dialyzed against BAD refolding buffer (0.1 M Tris, 0.1 M KCl, 0.2 M arginine, 2.5 mM CHAPS, 5 mM DTT, 10% glycerol, pH 8.5) containing ATP (3 mM) and MgCl2 (20 mM). Reactions were carried out at 4°C overnight. PKAc and excess ATP were removed from BAD-GST via glutathione-affinity chromatography (GSTrap, GE Healthcare). The extent of phosphorylation was established via mass spectrometry and 2D-IEF-SDS-PAGE using ReadyStrip IPG strips (Bio-Rad) with a pH range of 4–7. pET28badgst was subjected to site-directed mutagenesis to remove sites of phosphorylation (Ser-to-Ala) or to incorporate phosphorylation mimics (Ser-to-Asp) using the QuikChange™ Site-directed mutagenesis kit (Stratagene).

[7] = Analytical ultracentrifugation sedimentation velocity (oligomerization, shape); format: physicochemical; conditions: sedimentation velocity, 20°C, 50,000 x g; unity = compact sphere
Procedure: as §2

T3 sequence (Q07817 with tags, fused parts or gaps DEL45-84): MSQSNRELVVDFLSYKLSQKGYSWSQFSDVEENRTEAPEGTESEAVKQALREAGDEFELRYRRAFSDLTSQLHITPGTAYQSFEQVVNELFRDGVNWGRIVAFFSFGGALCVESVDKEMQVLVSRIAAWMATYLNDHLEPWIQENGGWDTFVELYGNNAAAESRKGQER

| Molecule | Binding to GCK, phosphorylated fluorescent peptide / trifluoroethanol (GCK [1]) | IC50 (Bcl-xL; 200 nM f-BH3, 50 nM Bcl-xL) [nM] | CD comparison (in words) [2] | Increase in GCK activity, GST tag removed (human pancreatic GCK [3]; 0.5, 0.78 and 1.0 mM glucose, data not shown) | Effect on impaired insulin response or GSIS of BAD-deficient islets (BAD-deficient islets) | Coimmunoprecipitation with GCK (GCK [4]) | Competition with f-BH3 binding to Bcl-xL (in words) (Bcl-xL; 200 nM f-BH3, 50 nM Bcl-xL, GST up to 10 μM, BAD-GST phosphorylated by PKA) | Ability to interact with Bcl-xL (in words) (Bcl-xL; ITC and fluorescence polarization assays) | Complex with GCK by analytical ultracentrifugation (human pancreatic GCK [5]) | pI values [6] | Increase in GCK activity over unmodified BAD-GST (human pancreatic GCK [3]; 1.0 mM glucose, BAD-GST phosphorylated by PKA) [%] | Hill coefficient H of GCK in presence of pBAD-GST (human pancreatic GCK [3]; Fig 6A, GCK alone: H = 1.7) | K0.5 (glucose) of GCK in presence of pBAD-GST (human pancreatic GCK [3]; Fig 6A, GCK alone: K0.5 = 8.6 mM, Hill equation fit) [mM] | kcat of GCK in presence of pBAD-GST (human pancreatic GCK [3]; Fig 6A, GCK alone: kcat = 38.1 s^-1) [s^-1] | Difference in effect on GCK activity, phosphorylated versus unmodified BAD-GST (human pancreatic GCK [3]; all glucose concentrations other than 1.0 mM) | Maximum increase in GCK activity (human pancreatic GCK [3]; glucose below K0.5, phosphorylated BAD > 2 μM) [%] | Frictional ratio f/f0 [7] |
| --- | --- | --- | --- | --- | --- | --- | --- | --- | --- | --- | --- | --- | --- | --- | --- | --- | --- |
| NLWAAQRYGRELRRM(p)SDK(FITC) FVD [f-pBH3, 21-residue FITC-labeled phosphorylated peptide containing the BH3 domain of BAD] | does not affect f-pBH3 binding to GCK |  |  |  |  |  |  |  |  |  |  |  |  |  |  |  |  |
| B1 |  | 440 | nearly identical | 7–12% | restores GSIS | co-immunoprecipitates with GCK; also recorded: can coimmunoprecipitate with GCK |  |  |  |  |  |  |  |  |  |  |  |
| B2 |  | ≥ 1600 | a higher degree of α-helical content compared to unmodified BAD-GST |  |  |  | abrogrates the protein’s ability to compete with f-BH3 | significantly impaired in their ability to interact with Bcl-xL | no evidence of a higher molecular weight complex | 4–7 | 5 | 1.6 | 8.8 | 38.4 | no statistical difference | 15 | 3.1 |
